Tests used:
Assay in all cases: cell-based or functional assay
[1] = target: HIV-1 92RW024 envelope glycoprotein (Env) on pseudovirus (HIV-1)
[2] = target: HIV-1 Env of isolate MGRM-D-005 (clade D) (HIV-1)
[3] = target: HIV-1 IAVI-C22 envelope protein (Env) on pseudovirus (HIV-1)
[4] = target: HIV-1 Env of isolate MGRM-G-019 (subtype G) (HIV-1)
[5] = target: HIV-1 Env of pseudovirus PVO.4 (Acute), clade B (HIV-1)
[6] = target: HIV-1 MGRM-A-013 envelope glycoprotein (Env) (HIV-1)
[7] = target: HIV-1 Env of isolate MGRM-G-011 (subtype G) (HIV-1)
[8] = target: HIV-1 MGRM-C-015 Env (HIV-1)
[9] = target: HIV-1 Env of isolate 92RW008 (HIV-1)
[10] = target: HIV-1 MGRM-A-003 envelope glycoprotein (Env) (HIV-1)
[11] = target: HIV-1 Env of isolate MGRM-D-004 (HIV-1)
[12] = target: HIV-1 IAVI-C3 envelope protein (Env) on pseudovirus (HIV-1)
[13] = target: HIV-1 MGRM-C-022 Env (HIV-1)
[14] = target: HIV-1 MGRM-C-017 Env (HIV-1)
[15] = target: HIV-1 92RW009 envelope glycoprotein (Env) (HIV-1)
[16] = target: HIV-1 Env of isolate MGRM-G-024 (subtype G) (HIV-1)
[17] = target: HIV-1 Env of isolate MGRM-AE-001 (HIV-1)
[18] = target: HIV-1 Env of isolate 98CN009 (subtype CRF07_BC) (HIV-1)
[19] = target: HIV-1 Env of isolate MG RM-D-019 (subtype D) (HIV-1)
[20] = target: HIV-1 Env of isolate MGRM-C-012 (pseudovirus) (HIV-1 isolate MGRM-C-012, subtype C)
[21] = target: HIV-1 Env of isolate MGRM-C-017 (pseudovirus) (HIV-1 isolate MGRM-C-017, subtype C)
[22] = target: HIV-1 Env of isolate MGRM-C-024 (pseudovirus) (HIV-1 isolate MGRM-C-024, subtype C)
[23] = target: HIV-1 Env of isolate MG RM-D-004 (subtype D) (HIV-1)
[24] = target: HIV-1 Env of isolate MGRM-C-028 (pseudovirus) (HIV-1 isolate MGRM-C-028, subtype C)
[25] = target: HIV-1 NL43 Env (pseudovirus) (HIV-1)
[26] = target: HIV-1 JR-CSF Env L125A (HIV-1 (isolate JR-CSF)) (UniProt P20871)
[27] = target: HIV-1 Env of isolate MGRM-G-025 (HIV-1)
[28] = target: HIV-1 JR-CSF Env V127A (HIV-1 (isolate JR-CSF)) (UniProt P20871)
[29] = target: HIV-1 Env of isolate MGRM-D-028 (subtype D), on pseudovirus (HIV-1)
[30] = target: HIV-1 Env of isolate 92UG005 (HIV-1)
[31] = target: HIV-1 Env of isolate 92WR009 (HIV-1)
[32] = target: HIV-1 Env of isolate 93UG077 (HIV-1)
[33] = target: HIV-1 Env of isolate 94KE105 (subtype AC), on pseudovirus (HIV-1)
[34] = target: HIV-1 Env of isolate MGRM-AG-005 (CRF_AG), on pseudovirus (HIV-1)
[35] = target: HIV-1 Env of isolate JRCSF (HIV-1) (UniProt P20871)
[36] = target: HIV-1 Env of isolate MGRM-Chronic-B-002 (HIV-1)
[37] = target: HIV-1 Env of isolate MGRM-D-021 (HIV-1)
[38] = target: HIV-1 Env of isolate MGRM-D-001 (HIV-1)
[39] = target: HIV-1 Env of isolate MGRM-F1-020 (subtype F), on pseudovirus (HIV-1)
[40] = target: HIV-1 Env of isolate MGRM-AG-002 (CRF_AG), on pseudovirus (HIV-1)

Chain of 5329_C19 (PGT-136) (antibody) (VH): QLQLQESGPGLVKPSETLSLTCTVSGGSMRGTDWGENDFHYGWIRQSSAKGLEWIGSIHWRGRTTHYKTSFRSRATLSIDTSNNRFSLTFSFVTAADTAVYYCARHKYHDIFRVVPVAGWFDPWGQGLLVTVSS
Chain of 5329_C19 (PGT-136) (antibody) (VL): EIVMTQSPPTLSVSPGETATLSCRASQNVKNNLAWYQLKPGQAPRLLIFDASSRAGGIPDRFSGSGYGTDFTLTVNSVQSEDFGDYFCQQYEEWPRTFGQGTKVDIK

Substance	IC50 (µg/mL), pseudovirus neutralization [18]	IC50 (µg/mL), pseudovirus neutralization [19]	IC50 (µg/mL) neutralization [20]	IC50 (µg/mL) neutralization [21]	IC50 (µg/mL) neutralization [22]	IC50 (µg/mL), pseudovirus neutralization [23]	IC50 (µg/mL) neutralization [24]	IC50, pseudovirus neutralization [25]	Fold IC50 increase relative to wild-type [26]	IC50, pseudovirus neutralization [27]	Fold IC50 increase relative to wild-type [28]	further results
1496_C09 (PG9) (TCN-109) (antibody)												IC50 (µg/ml), pseudovirus neutralization [1]: 0.18 µg/mL; IC50 (µg/ml), pseudovirus neutralization [2]: 0.59 µg/mL; neutralization IC50 [3]: 24.9 µg/mL; neutralization IC50 [4]: 14.6 µg/mL; IC50 (µg/ml), pseudovirus neutralization [5]: 4.01 µg/mL; IC50 (µg/ml), pseudovirus neutralization [6]: 0.16 µg/mL; neutralization IC50 [7]: 0.335 µg/mL; IC50 [8]: 0.5 µg/mL; IC50 [9]: 0.006 µg/mL; IC50 (µg/ml), pseudovirus neutralization [10]: 0.65 µg/mL; IC50 (µg/mL), pseudovirus neutralization [11]: 0.06 µg/mL; neutralization IC50 [12]: 12.9 µg/mL; IC50 [13]: 0.19 µg/mL; IC50 [14]: 1.52 µg/mL; IC50 (µg/ml), pseudovirus neutralization [15]: 0.03 µg/mL; neutralization IC50 [16]: 0.163 µg/mL; IC50 (µg/mL), pseudovirus neutralization [17]: 20.6 µg/mL; IC50 (µg/ml), pseudovirus neutralization [17]: 2.97 µg/mL
4838_L06 (PGT-121) (antibody)	0.009 µg/mL	> 50 µg/mL	0.123 µg/mL	0.009 µg/mL	0.052 µg/mL	> 50 µg/mL	0.472 µg/mL	> 50 µg/mL				
4858_P08 (PGT-123) (antibody)	0.007 µg/mL	> 50 µg/mL	0.605 µg/mL	0.01 µg/mL	0.195 µg/mL	> 50 µg/mL	0.402 µg/mL	> 50 µg/mL	2.5 fold	0.046 µg/mL	1.2 fold	
4877_D15 (PGT-122) (antibody)	0.013 µg/mL	> 50 µg/mL	2 µg/mL	0.015 µg/mL	0.102 µg/mL	> 50 µg/mL	2.22 µg/mL	> 50 µg/mL		0.079 µg/mL		
5114_A19 (PGT-128) (antibody)									2.9 fold	0.017 µg/mL	1.1 fold	IC50, pseudovirus neutralization [29]: > 50 µg/mL; IC50 [30]: 0.018 µg/mL; neutralization IC50 [31]: 0.812 µg/mL; neutralization IC50 [32]: 0.014 µg/mL; neutralization IC50 [9]: 0.003 µg/mL; IC50 [11]: 24.9 µg/mL; IC50, single-round pseudovirus neutralization [33]: 0.007 µg/mL; IC50, single-round pseudovirus neutralization [34]: 0.037 µg/mL; IC50 [35]: 0.003 µg/mL; IC50 [36]: 0.036 µg/mL; IC50 [37]: 0.014 µg/mL; IC50 [38]: 0.138 µg/mL; IC50, pseudovirus neutralization [39]: 0.355 µg/mL; IC50, single-round pseudovirus neutralization [40]: 4.99 µg/mL
5123_A06 (PGT-125) (antibody)	0.03 µg/mL	0.049 µg/mL	> 50 µg/mL	2.36 µg/mL	> 50 µg/mL	0.371 µg/mL	14 µg/mL	> 50 µg/mL	1.6 fold	> 50 µg/mL	0.9 fold	
5141_B17 (PGT-126) (antibody)	0.019 µg/mL	> 50 µg/mL	0.111 µg/mL	0.17 µg/mL	> 50 µg/mL	> 50 µg/mL	0.196 µg/mL	> 50 µg/mL	1.2 fold	17.1 µg/mL	1.3 fold	IC50 [25]: > 10 µg/mL; IC80 [25]: > 10 µg/mL; IC90 [25]: > 10 µg/mL; IC95 [25]: > 10 µg/mL
5145_B14 (PGT-127) (antibody)	0.09 µg/mL	> 50 µg/mL	1.07 µg/mL	3.4 µg/mL	> 50 µg/mL	> 50 µg/mL	7.57 µg/mL	> 50 µg/mL	1.4 fold	19.3 µg/mL	2.5 fold	
5329_C19 (PGT-136) (antibody)										> 50 µg/mL		IC50, pseudovirus neutralization [29]: > 50 µg/mL; IC50 [30]: > 50 µg/mL; neutralization IC50 [31]: > 50 µg/mL; neutralization IC50 [32]: > 50 µg/mL; neutralization IC50 [9]: > 50 µg/mL; IC50 [11]: > 50 µg/mL; IC50, single-round pseudovirus neutralization [33]: > 50 µg/mL; IC50, single-round pseudovirus neutralization [34]: > 50 µg/mL; IC50 [35]: > 50 µg/mL; IC50 [36]: > 50 µg/mL; IC50 [37]: > 50 µg/mL; IC50 [38]: > 50 µg/mL; IC50, pseudovirus neutralization [39]: 9.31 µg/mL; IC50, single-round pseudovirus neutralization [40]: > 50 µg/mL

Reference: US20200024330A1
